We go through two compounds from publication PMC10882135, “Rapid reaction studies on the chemistry of flavin oxidation in urocanate reductase” (The Journal of Biological Chemistry, 2024).

What is called pKa is the pH at which an ionisable group is half protonated. Lower therefore signals a group that gives up its proton readily.

The target in data set [1] is Arg411 (UniProt position 411, EELERRDVISH). The data set can be described thus: kinetics (anaerobic stopped-flow spectrophotometry). The settings on record: 4 °C, 100 mM NaCl, 50 mM Bis-Tris propane (pH 6-9) or 50 mM CAPS (pH >9), 10% glycerol, reduced FAD (flavin hydroquinone) enzyme in complex with urocanate, folded (unfolding above pH 10.5 by CD).
Data set [2] deals with T1, UrdA′ (isolated FAD domain of urocanate reductase) (Shewanella oneidensis, UniProt Q8CVD0).
T1 construct: N-terminal FMN domain removed), C-terminal His tag, pET29b, E. coli BL21 (DE3); noncovalent FAD
T1 sequence (Q8CVD0 130-582): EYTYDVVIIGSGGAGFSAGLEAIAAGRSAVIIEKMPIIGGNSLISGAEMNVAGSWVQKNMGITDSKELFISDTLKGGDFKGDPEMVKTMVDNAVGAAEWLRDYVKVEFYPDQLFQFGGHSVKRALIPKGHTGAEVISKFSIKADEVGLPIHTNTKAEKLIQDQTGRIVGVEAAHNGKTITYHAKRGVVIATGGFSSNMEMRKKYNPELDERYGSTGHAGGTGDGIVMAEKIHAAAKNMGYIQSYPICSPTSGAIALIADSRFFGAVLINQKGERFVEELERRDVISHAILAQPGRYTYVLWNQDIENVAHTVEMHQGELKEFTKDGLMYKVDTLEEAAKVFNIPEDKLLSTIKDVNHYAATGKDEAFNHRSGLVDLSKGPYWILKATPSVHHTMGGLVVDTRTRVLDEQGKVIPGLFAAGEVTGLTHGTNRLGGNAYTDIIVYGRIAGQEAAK
Description: copurification; absorbance spectrum before and after SDS/heat release of FAD. Type of data set: binding. The settings on record: noncovalent; pH 7.

In data set [1], “Urocanate reductase, isolated FAD-binding C-terminal domain (UrdA') (Shewanella oneidensis MR-1)” displayed a pKa of 9.4 ± 0.1.

In the case of `Cc1cc2nc3c(=O)[nH]c(=O)nc-3n(C[C@H](O)[C@H](O)[C@H](O)COP(=O)(O)OP(=O)(O)OC[C@H]3O[C@@H](n4cnc5c(N)ncnc54)[C@H](O)[C@@H]3O)c2cc1C` [FAD], in data set [2], the “copurification; absorbance spectrum before and after SDS/heat release of FAD” value is listed as “extinction coefficient of FAD bound to the variants was then calculated”.
